Measured values from patent US20180155451A1 (published 2018).

T1: FcγRIIb extracellular domain with C-terminal His tag (human, UniProt P31994 43-217)
T1 construct: extracellular domain; Soluble receptor expressed in FreeStyle293 cells and used as analyte in Biacore; also called FcgRIIb; 2b; not shown: His tag at the C terminus
T1 sequence (looked up): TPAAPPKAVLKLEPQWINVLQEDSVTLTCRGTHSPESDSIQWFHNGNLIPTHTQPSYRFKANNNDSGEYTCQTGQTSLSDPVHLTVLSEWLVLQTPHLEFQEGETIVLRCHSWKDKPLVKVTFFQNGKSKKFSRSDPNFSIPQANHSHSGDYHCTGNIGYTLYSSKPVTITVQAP

B1: heterodimerized antibody GpH7-A5/GpH7-B3 variant E333_08L/GpL16-k0 (antibody, human IgG1, kappa)
heavy 1: not shown
heavy 2: not shown
light: DIVMTQSPLSLPVTPGEPASISCQASESLVHSNRNTYLHWYLQKPGQSPQLLIYKVSNRFSGVPDRFSGSGSGTDFTLKISRVEAEDVGVYYCSQNTHVPPTFGQGTKVEIERTVAAPSVFIFPPSDEQLKSGTASVVCLLNNFYPREAKVQWKVDNALQSGNSQESVTEQDSKDSTYSLSSTLTLSKADYEKHKVYACEVTHQGLSSPVTKSFNRGEC
notes: Substitution in only one H chain (GpH7-B3 side); also called He Ab
B2: heterodimerized antibody GpH7-A5/GpH7-B3 variant E333_09D/GpL16-k0 (antibody, human IgG1, kappa)
heavy 1: not shown
heavy 2: not shown
light: B1 light
notes: as for B1
B3: heterodimerized antibody GpH7-A5/GpH7-B3 variant E333_11K/GpL16-k0 (antibody, human IgG1, kappa)
heavy 1: not shown
heavy 2: not shown
light: B1 light
notes: as for B1
B4: heterodimerized antibody GpH7-A5/GpH7-B3 variant E333_12R/GpL16-k0 (antibody, human IgG1, kappa)
heavy 1: not shown
heavy 2: not shown
light: B1 light
notes: as for B1
B5: heterodimerized antibody GpH7-A5/GpH7-B3 variant E333_13S/GpL16-k0 (antibody, human IgG1, kappa)
heavy 1: not shown
heavy 2: not shown
light: B1 light
notes: as for B1
B6: heterodimerized antibody GpH7-A5/GpH7-B3 variant E333_14T/GpL16-k0 (antibody, human IgG1, kappa)
heavy 1: not shown
heavy 2: not shown
light: B1 light
notes: as for B1
B7: heterodimerized antibody GpH7-A5/GpH7-B3 variant E333_15Y/GpL16-k0 (antibody, human IgG1, kappa)
heavy 1: not shown
heavy 2: not shown
light: B1 light
notes: as for B1
B8: heterodimerized antibody GpH7-A5/GpH7-B3 variant E333_16H/GpL16-k0 (antibody, human IgG1, kappa)
heavy 1: not shown
heavy 2: not shown
light: B1 light
notes: as for B1
B9: heterodimerized antibody GpH7-A5/GpH7-B3 variant I336_01G/GpL16-k0 (antibody, human IgG1, kappa)
heavy 1: not shown
heavy 2: not shown
light: B1 light
notes: as for B1
B10: heterodimerized antibody GpH7-A5/GpH7-B3 variant I336_02A/GpL16-k0 (antibody, human IgG1, kappa)
heavy 1: not shown
heavy 2: not shown
light: B1 light
notes: as for B1
B11: heterodimerized antibody GpH7-A5/GpH7-B3 variant I336_03V/GpL16-k0 (antibody, human IgG1, kappa)
heavy 1: not shown
heavy 2: not shown
light: B1 light
notes: as for B1
B12: heterodimerized antibody GpH7-A5/GpH7-B3 variant K334_01G/GpL16-k0 (antibody, human IgG1, kappa)
heavy 1: not shown
heavy 2: not shown
light: B1 light
notes: as for B1
B13: heterodimerized antibody GpH7-A5/GpH7-B3 variant K334_09D/GpL16-k0 (antibody, human IgG1, kappa)
heavy 1: not shown
heavy 2: not shown
light: B1 light
notes: as for B1
B14: heterodimerized antibody GpH7-A5/GpH7-B3 variant T335_01G/GpL16-k0 (antibody, human IgG1, kappa)
heavy 1: not shown
heavy 2: not shown
light: B1 light
notes: as for B1
B15: heterodimerized antibody GpH7-A5/GpH7-B3 variant T335_02A/GpL16-k0 (antibody, human IgG1, kappa)
heavy 1: not shown
heavy 2: not shown
light: B1 light
notes: as for B1
B16: heterodimerized antibody GpH7-A5/GpH7-B3 variant T335_05P/GpL16-k0 (antibody, human IgG1, kappa)
heavy 1: not shown
heavy 2: not shown
light: B1 light
notes: as for B1
B17: heterodimerized antibody GpH7-A5/GpH7-B3 variant T335_06M/GpL16-k0 (antibody, human IgG1, kappa)
heavy 1: not shown
heavy 2: not shown
light: B1 light
notes: as for B1
B18: heterodimerized antibody GpH7-A5/GpH7-B3 variant T335_11K/GpL16-k0 (antibody, human IgG1, kappa)
heavy 1: not shown
heavy 2: not shown
light: B1 light
notes: as for B1
B19: heterodimerized antibody GpH7-A5/GpH7-B3 variant T335_12R/GpL16-k0 (antibody, human IgG1, kappa)
heavy 1: not shown
heavy 2: not shown
light: B1 light
notes: as for B1

molecular target: T2, FcγRIa extracellular domain with C-terminal His tag (human, UniProt P12314 16-292); assay: SPR Biacore, relative binding amount
T2 construct: extracellular domain; Soluble receptor expressed in FreeStyle293 cells and used as analyte in Biacore; also called FcgRI; 1a; not shown: His tag at the C terminus
T2 sequence (P12314 16-292): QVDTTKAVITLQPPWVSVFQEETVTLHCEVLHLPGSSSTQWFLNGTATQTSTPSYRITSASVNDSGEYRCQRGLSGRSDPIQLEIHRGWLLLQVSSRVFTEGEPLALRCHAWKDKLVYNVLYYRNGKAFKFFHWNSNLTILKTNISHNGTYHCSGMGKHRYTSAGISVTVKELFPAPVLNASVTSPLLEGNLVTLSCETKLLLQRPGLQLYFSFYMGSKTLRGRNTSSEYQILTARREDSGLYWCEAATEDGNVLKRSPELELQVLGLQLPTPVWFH

| Binder | He/Con_1a |
| --- | --- |
| B1 | 102 % of GpH7-A5/GpH7-B3/GpL16-k0 (=100) |
| B2 | 104 % of GpH7-A5/GpH7-B3/GpL16-k0 (=100) |
| B3 | 102 % of GpH7-A5/GpH7-B3/GpL16-k0 (=100) |
| B4 | 102 % of GpH7-A5/GpH7-B3/GpL16-k0 (=100) |
| B5 | 103 % of GpH7-A5/GpH7-B3/GpL16-k0 (=100) |
| B6 | 102 % of GpH7-A5/GpH7-B3/GpL16-k0 (=100) |
| B7 | 101 % of GpH7-A5/GpH7-B3/GpL16-k0 (=100) |
| B8 | 101 % of GpH7-A5/GpH7-B3/GpL16-k0 (=100) |
| B9 | 109 % of GpH7-A5/GpH7-B3/GpL16-k0 (=100) |
| B10 | 106 % of GpH7-A5/GpH7-B3/GpL16-k0 (=100) |
| B11 | 105 % of GpH7-A5/GpH7-B3/GpL16-k0 (=100) |
| B12 | 104 % of GpH7-A5/GpH7-B3/GpL16-k0 (=100) |
| B13 | 106 % of GpH7-A5/GpH7-B3/GpL16-k0 (=100) |
| B14 | 104 % of GpH7-A5/GpH7-B3/GpL16-k0 (=100) |
| B15 | 103 % of GpH7-A5/GpH7-B3/GpL16-k0 (=100) |
| B16 | 106 % of GpH7-A5/GpH7-B3/GpL16-k0 (=100) |
| B17 | 107 % of GpH7-A5/GpH7-B3/GpL16-k0 (=100) |
| B18 | 111 % of GpH7-A5/GpH7-B3/GpL16-k0 (=100) |
| B19 | 113 % of GpH7-A5/GpH7-B3/GpL16-k0 (=100) |

molecular target: T1, FcγRIIb extracellular domain with …; assay: SPR Biacore, relative binding amount

| Binder | He/Con_2b |
| --- | --- |
| B1 | 95 % of GpH7-A5/GpH7-B3/GpL16-k0 (=100) |
| B2 | 94.3 % of GpH7-A5/GpH7-B3/GpL16-k0 (=100) |
| B3 | 80.6 % of GpH7-A5/GpH7-B3/GpL16-k0 (=100) |
| B4 | 80.4 % of GpH7-A5/GpH7-B3/GpL16-k0 (=100) |
| B5 | 81.8 % of GpH7-A5/GpH7-B3/GpL16-k0 (=100) |
| B6 | 86.1 % of GpH7-A5/GpH7-B3/GpL16-k0 (=100) |
| B7 | 94.4 % of GpH7-A5/GpH7-B3/GpL16-k0 (=100) |
| B8 | 83.3 % of GpH7-A5/GpH7-B3/GpL16-k0 (=100) |
| B9 | 90.1 % of GpH7-A5/GpH7-B3/GpL16-k0 (=100) |
| B10 | 84.9 % of GpH7-A5/GpH7-B3/GpL16-k0 (=100) |
| B11 | 90.3 % of GpH7-A5/GpH7-B3/GpL16-k0 (=100) |
| B12 | 92.5 % of GpH7-A5/GpH7-B3/GpL16-k0 (=100) |
| B13 | 94.8 % of GpH7-A5/GpH7-B3/GpL16-k0 (=100) |
| B14 | 96.7 % of GpH7-A5/GpH7-B3/GpL16-k0 (=100) |
| B15 | 94 % of GpH7-A5/GpH7-B3/GpL16-k0 (=100) |
| B16 | 99.9 % of GpH7-A5/GpH7-B3/GpL16-k0 (=100) |
| B17 | 99.4 % of GpH7-A5/GpH7-B3/GpL16-k0 (=100) |
| B18 | 91 % of GpH7-A5/GpH7-B3/GpL16-k0 (=100) |
| B19 | 91.9 % of GpH7-A5/GpH7-B3/GpL16-k0 (=100) |
